Assay results from US20240390512A1, “METHODS OF TREATING CHEMOTHERAPY-RESISTANT CANCER WITH AN ANTIBODY-DRUG CONJUGATE” (DAIICHI SANKYO COMPANY, LIMITED, priority 2021, published 2024).

T1: human CDH6 (full-length and EC domain deletion mutants) (Homo sapiens, UniProt P55285, DEL384-486)
T1 construct: each one of the five EC domains could be deleted from full-length human CDH6; 3xFLAG (deletion mutants only, from the vector p3×FLAG-CMV-9); expressed in transfected cells; host or cells: 293α cells
T1 sequence (P55285 with tags, fused parts or gaps DEL384-486): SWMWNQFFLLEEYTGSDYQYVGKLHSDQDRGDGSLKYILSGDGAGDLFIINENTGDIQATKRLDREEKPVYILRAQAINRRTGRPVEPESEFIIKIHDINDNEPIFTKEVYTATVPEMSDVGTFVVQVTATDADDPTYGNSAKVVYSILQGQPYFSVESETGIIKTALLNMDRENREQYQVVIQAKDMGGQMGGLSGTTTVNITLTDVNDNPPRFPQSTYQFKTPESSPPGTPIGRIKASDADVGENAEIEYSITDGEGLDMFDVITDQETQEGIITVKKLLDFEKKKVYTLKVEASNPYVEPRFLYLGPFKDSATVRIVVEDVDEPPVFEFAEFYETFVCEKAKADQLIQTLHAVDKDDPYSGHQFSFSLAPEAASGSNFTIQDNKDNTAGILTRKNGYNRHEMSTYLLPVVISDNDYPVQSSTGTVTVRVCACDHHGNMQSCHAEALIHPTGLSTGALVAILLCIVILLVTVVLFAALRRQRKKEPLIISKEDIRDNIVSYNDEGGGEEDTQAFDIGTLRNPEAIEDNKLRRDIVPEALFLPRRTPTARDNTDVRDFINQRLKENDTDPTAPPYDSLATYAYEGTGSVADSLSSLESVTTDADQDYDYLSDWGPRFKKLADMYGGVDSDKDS

T2: human CDH6 (full-length and EC domain deletion mutants) (Homo sapiens, UniProt P55285, DEL269-383)
T2 construct: each one of the five EC domains could be deleted from full-length human CDH6; 3xFLAG (deletion mutants only, from the vector p3×FLAG-CMV-9); expressed in transfected cells; host or cells: 293α cells
T2 sequence (P55285 with tags, fused parts or gaps DEL269-383): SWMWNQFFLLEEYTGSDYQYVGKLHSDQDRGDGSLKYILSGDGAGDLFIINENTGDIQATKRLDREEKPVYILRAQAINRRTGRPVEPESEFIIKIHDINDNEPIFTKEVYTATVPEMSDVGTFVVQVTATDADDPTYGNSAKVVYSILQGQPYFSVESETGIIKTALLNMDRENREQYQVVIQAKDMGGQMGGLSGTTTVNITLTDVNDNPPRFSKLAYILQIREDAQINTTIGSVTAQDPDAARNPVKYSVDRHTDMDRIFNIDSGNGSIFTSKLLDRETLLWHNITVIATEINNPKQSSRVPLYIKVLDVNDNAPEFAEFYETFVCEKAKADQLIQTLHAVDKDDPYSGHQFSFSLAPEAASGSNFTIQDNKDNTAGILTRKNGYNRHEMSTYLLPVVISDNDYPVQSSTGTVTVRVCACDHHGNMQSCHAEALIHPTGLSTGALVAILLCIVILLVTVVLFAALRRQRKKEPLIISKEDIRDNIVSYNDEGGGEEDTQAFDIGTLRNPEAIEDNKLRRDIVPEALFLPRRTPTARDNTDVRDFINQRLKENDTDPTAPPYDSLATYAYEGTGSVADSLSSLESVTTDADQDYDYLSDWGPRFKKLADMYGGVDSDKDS


What was measured:
[1] = molecular target: T1, human CDH6 (full-length and EC domain deletion mutants); assay: Epitope analysis of rat anti-CDH6 antibody by flow cytometry using domain deletion mutants; format: binding; settings: flow cytometry; transfected 293α cells; antibody 20 nM
Source text: (§1) The full-length extracellular region of human CDH6 has five extracellular domains, EC1 (SEQ ID NO: 2), EC2 (SEQ ID NO: 3), EC3 (SEQ ID NO: 4), EC4 (SEQ ID NO: 5), and EC5 (SEQ ID NO: 6). A gene to be expressed such that each one of the five EC domains could be deleted from full-length human CDH6 was synthesized by GeneArt, and incorporated into p3×FLAG-CMV-9 vectors for mammalian expression (Sigma-Aldrich Co. LLC) according to a method known to a person skilled in the art in order to produce an expression vector for each domain deletion mutant lacking any one of EC1 to EC5.
(§2) The epitopes to which the rat anti-human CDH6 antibodies bound were identified by flow cytometry analysis using a 293α cell line transfected with each EC domain deletion vector. Using Lipofectamine 2000 (Thermo Fisher Scientific Inc.), each domain deletion mutant expression vector produced in Reference Example 2)-2-1, or pcDNA3.1-hCDH6 for the expression of full-length human CDH6 was transiently introduced into a 293α cell line, which was a cell line derived from HEK293 cells by stable transfection with integrin αv and integrin […] expression vectors. The cells were cultured overnight under conditions of 37° C. and 5% CO2, and thereafter, a cell suspension was prepared. The suspension of the transfected 293α cells was centrifuged, and a supernatant was then removed. Thereafter, the cells were suspended by the addition of each of the 4 rat anti-CDH6 monoclonal antibodies (clone Nos: rG019, rG055, rG056 and rG061), which had been prepared in Reference Example 1)-7, or rat IgG control (R&D Systems, Inc.) (final concentration: 20 nM). The cells were left standing at 4° C. for 1 hour. The cells were washed twice with PBS supplemented with 5% FBS, and then suspended by the addition of Anti-Rat IgG (whole molecule)-FITC antibody produced in rabbit (Sigma-Aldrich Co. LLC) that had been 50-fold diluted with PBS supplemented with 5% FBS. The cells were left standing at 4° C. for 1 hour. The cells were washed twice with PBS supplemented with 5% FBS, followed by detection using a flow cytometer (Canto II; BD Biosciences). The data was analyzed using FlowJo (Tree Star, Inc.). In the histograms of FIGS. 2-1 to 2-6, the abscissa depicts FITC fluorescence intensity indicating the amount of the antibody bound, and the ordinate depicts cell count. […] Fluorescence intensity is enhanced when the antibody binds to full-length hCDH6 or each EC domain deletion mutant on the surface of cells. The rat IgG control binds to none of the transfected cells.

[2] = molecular target: T2, human CDH6 (full-length and EC domain deletion mutants); assay: as above; format: binding; settings: flow cytometry; transfected 293α cells; antibody 20 nM
Source text: as §1, §2

| binding to EC4 deletion mutant [1] | binding to EC3 deletion mutant [2] | Molecule |
| --- | --- | --- |
| bind | do not bind | rG055: rat anti-human CDH6 monoclonal antibody produced by hybridoma rG055; variable regions SEQ ID NO: 20 and 25 (antibody, listed as Rattus norvegicus, V domains shown) VL: DVQMTHSPSYLAASPGESVSISCKTSKNISNYLVWYQQKPGEAYKLLIYSGSTLQSGTPSRFSGSGSGTDFTLTIRSLEPEDFGLYFCQQYYEKPFTFGSGTKLEIKRA VH: EVQLQESGPGLVRPSQSLSLSCSVTDYSITSNYWGWIRRFPGNKMEWMGYITYSGYTSYNPSLQSRISITRDTSKNQFFLQLNSVTAEDTATYYCARSINHGGYSYVVDAWGPGASVTVSS |
| bind | do not bind | rG061: rat anti-human CDH6 monoclonal antibody produced by hybridoma rG061; variable regions SEQ ID NO: 40 and 45 (antibody, listed as Rattus norvegicus, V domains shown) VL: DVQMTQSPSYLAASPGESVSISCKATKSISNYLAWYQQKPGEAYKVLIYSGSTLQSGTPSRFSGSGSGTDFTLTIRSLEPEDFGLYSCQQYYEKPLTFGSGTKLEIKRA VH: EVQLQESGPGLVKPSQSLSLTCSVTGYSITTYYWGWIRKFPGNKMEWMGYISYSGRTSYNPSLKSRMSITRDASKNQFFLQLNSVTTDDTATYYCARSPINHGGYWYFDFWGPGTMVTVSS |

Continued, molecule first:

| Molecule | binding to EC4 deletion mutant [1] | binding to EC3 deletion mutant [2] |
| --- | --- | --- |
| rG019: rat anti-human CDH6 monoclonal antibody produced by hybridoma rG019; variable regions SEQ ID NO: 10 and 15 (antibody, listed as Rattus norvegicus, V domains shown) VL: DIQMTQSPSLLSASVGDRVTLNCKASQNIYKNLAWYQQKLGEGPKLLIYDANTLQTGIPSRFSGSGSGSDFTLTISSLQPEDVATYFCQQYYSGWAFGGVTNLELKRA VH: QVQLQQSGAELVKPGSSVKISCKASGYTFTRNFMHWIKQQPGNGLEWIGWIYCGDGETEYNQKFNGKATLTADRSSSTAYMELSRLTSEDSAVYFCARGVYGGFAGGYFDFWGQGVMVTVSS | bind | do not bind |
| rG056: rat anti-human CDH6 monoclonal antibody produced by hybridoma rG056; variable regions SEQ ID NO: 30 and 35 (antibody, listed as Rattus norvegicus, V domains shown) VL: DVQMTQSPSSLAASPGESVSISCRATKSIGIYLAWYQQKPGKTFKLLIYSGSTLQSGTPSRFSGSGSGTDFTLTIRSLEPEDFGLYFCQQFYENPFTFGSGTKLEIRRA VH: EVQLQESGPGLVKPSQSLSLTCSVTDYSITTYFWGWIRKFPGNKMEWMGYMSYRGGTSYNPSLKSRISITRDTSKNQFFLQLNSVTTEDTATYYCARCPNYGGHSLVFDYWGQGVMVTVSS | bind | do not bind |
